Source: patent publication US20250287954A1, “METHOD AND COMPOSITION OF SYNERGISTIC INSECTICIDAL MIXTURES” (priority 2022, published 2025)

Test system: Cabbage Loopers
Test: Cabbage looper diet overlay bioassay (mortality at 4 days after treatment)
Assay type: in vivo
Experimental: Insecticidal bioassay: Activity against Cabbage Loopers was tested on Diet Overlay Bioassays. The appropriate artificial insect diet was dispensed into each well of a standard 96 well plate and allowed to dry. Once the diet solidified, 100 μL of the treatment was pipetted into the appropriate number of wells and allowed to dry. A single 1st instar larva was delivered into each well of a 96 well plate. Mortality was scored at 4 days after treatment.
Efficacy is expressed as percentage mortality at 4 days post treatment. Results (in duplicates) in % mortality are shown in above Table/chart.
FIG. 6 a plot of an insecticidal bioassay results for various purified compound with and without Sct1. Previous studies have shown that the insecticidal activity present in MBI-203 whole cell broth is mainly attributed to the synergy between secondary metabolites (chromamide analogues) and protein (Sct1). However, for these studies were carried out using mixed chromamides (a mixture of four analogues) and Sct1. With an objective to determine which chromamide analogue is critical for the observed synergy, these individual compounds were purified from MBI-203 WCB, and tested as mixture and individual compounds using the chewing bioassay. All compounds were tested at 3% rate based on the concentration of each present in the MBI-203 WCB. “Chroma mix” contained the chromamides MW 860, MW 874A, MW 874B, and MW 876.
Determination of LC50 value for MW 860 & Sct1. Based on the results from the above testing of purified compounds with & without Sct1, the LC50 for the MW 860, Chromamides MIX and Sct1 was determined. The individual pure compound and their mix were combined with Sct1 and submitted for determining the LC50 value.
FIG. 7 a plot of the effect of variation of concentration of MW 860 & Sct1 on insecticidal activity. Dose dependent study for MW 860 & Sct1 as mixture. To determine the minimum range of concentration of both MW 860 and Sct1 needed for good insecticidal activity, different ratios of both compounds were prepared and submitted for insecticidal bioassay.

chromamide A [MW 860]
mortality (in combination with Sct1, 3% dose, Cabbage looper (CL) bioassay, two subsequent testings): 92%

O=C1NC(c2c[nH]c3ccc(O)cc23)=C/C1=C1\C(=O)Nc2ccccc21 [violacein]
% Mortality (Cabbage Looper Assay) with sct1 (average of 4 bioassays) (in vivo): 3.269%

B1: sct1: Scott protein, ~20 kDa, extracellular secreted hypothetical protein of MBI-203, SEQ ID NO: 1 (protein, listed as Chromobacterium subtsugae)
chain: MSLTTDFLENPQAFMRSQAILIPAQVPPGNGKYQFAAQGAHAAVLQSTAASPNIPGFYAHPVANNINLFVLPTQQPARYYMFTDGMNGCQFLAYGPDRQHITVEHNNFIGDPTRYAARLAEVVALKPAYLLHISPSGVNNIPAGQYNSQQGVNIVGEYGQANGWRFWVRDRVDQNQGTVYGPL
insecticidal activity when tested individually (tested individually, 3% rate based on concentration in MBI-203 WCB (FIG. 6)): did not show any significant activity | % Mortality (Cabbage Looper Assay) with sct1 (average of 4 bioassays) (with sct1, 4 days post treatment, compounds at 2% rate based on concentration in MBI-203 WCB, * samples neat (D30 1%, CSM2 2%)): 1.087% | % Mortality (Cabbage Looper Assay) without sct1 (average of 3 bioassays) (without sct1, 4 days post treatment, compounds at 2% rate based on concentration in MBI-203 WCB, * samples neat (D30 1%, CSM2 2%)): 1.087%
